Experimental data taken from patent US20140363428A1 (Chugai, published 2014).
Each block holds one binder with its values, some of them ahead of it.

Experiments:
[1] = molecular target: T1, soluble human FcRn (heterodimer of FcRn alpha chain and beta2-microglobulin) (human, UniProt P55899 24-297; P61769 21-119); assay: SPR (Biacore), hFcRn, measured in multiplicates; n=7
T1 construct: Signal regions are part of the expressed constructs; also called hFcRn

[2] = molecular target: T1, soluble human FcRn (heterodimer of FcRn …); assay: SPR (Biacore), hFcRn, measured in multiplicates; n=12
soluble human FcRn [3] = molecular target: T2, soluble human FcRn (human, UniProt P55899 24-297; P61769 21-119); assay: SPR (Biacore), pH 6.0
T2 construct: Heterodimer of alpha chain and beta2-microglobulin; also called hFcRn

soluble human FcRn [4] = molecular target: T2, soluble human FcRn; assay: SPR (Biacore), pH 6.0; Table 26 series (4-5), a different experiment from Table 25; pH 6.0
soluble human FcRn [5] = molecular target: T2, soluble human FcRn; assay: SPR (Biacore), pH 6.0; pH 6.0 (acidic pH, not neutral pH)
human IgE [6] = molecular target: T3, human IgE (human); assay: SPR Biacore T200, 37 C; pH 5.8, 1.2 mM Ca
T3 construct: Recombinant antigen; variable region derived from an anti-human glypican3 antibody; also called hIgE
Method: (§1) Human IgE was immobilized onto the chip by injecting it at an appropriate concentration so as to be trapped by the biotinylated GPC3 peptide. […] Then, 10 mmol/L glycine-HCl (pH 1.5) was injected to regenerate the sensor chip. The interaction was always measured at 37 degrees C. The measurement result was analyzed by curve fitting using Biacore T200 Evaluation Software (GE Healthcare) to calculate the association rate constant ka (1/Ms) and dissociation rate constant kd (1/s). The dissociation constant KD (M) was calculated from the above-described constants.

human IgE [7] = molecular target: T3, human IgE; assay: SPR Biacore T200, 37 C; pH 5.8, 3 microM Ca
Method: as §1

human IgE [8] = molecular target: T3, human IgE; assay: SPR Biacore T200, 37 C; ratio of KD, pH dependency
Method: as §1

human IgE [9] = molecular target: T3, human IgE; assay: SPR Biacore T200, 37 C; ratio of KD, pH/Ca dependency
Method: as §1

human IgE [10] = molecular target: T3, human IgE; assay: SPR Biacore T200, 37 C, hIgE captured via biotinylated GPC3 peptide, Ab analyte; pH 7.4, 1.2 mM Ca
Method: as §1

human IgA [11] = molecular target: T4, human IgA (human); assay: SPR Biacore T200, 37 C; pH 5.8, 1.2 mM Ca; steady state affinity
T4 construct: Recombinant antigen; variable region derived from an anti-human IL-6 receptor antibody; also called hIgA
Method: (§2) The antibodies isolated as described in 8-2 were assessed for their hIgA-binding activity (dissociation constant KD (M)) using Biacore T200 (GE Healthcare). Running buffers used in the measurement were 0.05% tween20/20 mmol/L ACES/150 mmol/L NaCl (pH 7.4 or 5.8) containing 3 microM or 1.2 mM CaCl₂.
(§3) The antibody was allowed to bind to Sensor chip CM5 (GE Healthcare) immobilized with a suitable amount of recombinant Protein A/G (Thermo Scientific) by the amino coupling method. Then, an appropriate concentration of hIgA (described in 8-1) was injected as an analyte to allow interaction with the antibody on the sensor chip. The measurement was carried out at 37 degrees C. After the measurement, 10 mmol/L glycine-HCl (pH 1.5) was injected to regenerate the sensor chip. The dissociation constant KD (M) was calculated from the measurement result by curve fitting analysis and equilibrium parameter analysis using Biacore T200 Evaluation Software (GE Healthcare).

human IgA [12] = molecular target: T4, human IgA; assay: SPR Biacore T200, 37 C; pH 5.8, 3 microM Ca; steady state affinity
Method: as §2, §3

human IgA [13] = molecular target: T4, human IgA; assay: SPR Biacore T200, 37 C; pH 7.4, 3 microM Ca; steady state affinity
Method: as §2, §3

human IgA [14] = molecular target: T4, human IgA; assay: SPR Biacore T200, 37 C, Ab on Protein A/G, hIgA analyte; pH 7.4, 1.2 mM Ca; 1:1 binding model
Method: as §2, §3

human IgA [15] = molecular target: T4, human IgA; assay: SPR Biacore T200, 37 C, Ab on Protein A/G, hIgA analyte; pH 7.4, 1.2 mM Ca; 1:1 binding model; pH 7.4, 1.2 mM Ca; 1:1 binding model
Method: as §2, §3

[16] = molecular target: T5, biotinylated GPC3 peptide (chemically-synthetized peptide having a human glypican 3 protein-derived sequence, … (human, C-terminal Lys is biotinylated)); assay: SPR (Biacore T200), capture of human IgE on Sensor chip SA carrying the biotinylated GPC3 peptide, 37 degrees C
T5 construct: Synthetic peptide immobilized on Sensor chip SA through biotin-streptavidin
T5 peptide: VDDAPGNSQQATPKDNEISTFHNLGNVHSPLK

T4 sequence (VH, as listed by the source): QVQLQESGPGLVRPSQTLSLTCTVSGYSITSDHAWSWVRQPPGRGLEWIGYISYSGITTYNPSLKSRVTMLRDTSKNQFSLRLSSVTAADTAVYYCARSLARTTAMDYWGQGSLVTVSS

B2: Fv-4-F890 (antibody, human IgG1, kappa)
heavy: QVQLQESGPGLVKPSETLSLTCAVSGHSISHDHAWSWVRQPPGEGLEWIGFISYSGITNYNPSLQGRVTISRDNSKNTLYLQMNSLRAEDTAVYYCARSLARTTAMDYWGEGTLVTVSSASTKGPSVFPLAPSSKSTSGGTAALGCLVKDYFPEPVTVSWNSGALTSGVHTFPAVLQSSGLYSLSSVVTVPSSSLGTQTYICNVNHKPSNTKVDKKVEPKSCDKTHTCPPCPAPELLGGPSVFLFPPKPKDTLYISRTPEVTCVVVDVSHEDPEVKFNWYVDGVEVHNAKTKPREEQYNSTYRVVSVLTVLHQDWLNGKEYKCKVSNKALPAPIEKTISKAKGQPREPQVYTLPPSRDELTKNQVSLTCLVKGFYPSDIAVEWESNGQPENNYKTTPPVLDSDGSFFLYSKLTVDKSRWQQGNVFSCSVMHEALHYHVTQKSLSLSP
light: DIQMTQSPSSLSASVGDSVTITCQASTDISSHLNWYQQKPGKAPELLIYYGSHLLSGVPSRFSGSGSGTDFTFTISSLEAEDAATYYCGQGNRLPYTFGQGTKVEIERTVAAPSVFIFPPSDEQLKSGTASVVCLLNNFYPREAKVQWKVDNALQSGNSQESVTEQDSKDSTYSLSSTLTLSKADYEKHKVYACEVTHQGLSSPVTKSFNRGEC
notes: VH3-F890 (M252Y/N434Y/Y436V) and VL3-CK; also called Fv-4-890
- Kd [2]: 110 nM

B4: Fv-4-YTE (antibody, human IgG1, kappa)
heavy: QVQLQESGPGLVKPSETLSLTCAVSGHSISHDHAWSWVRQPPGEGLEWIGFISYSGITNYNPSLQGRVTISRDNSKNTLYLQMNSLRAEDTAVYYCARSLARTTAMDYWGEGTLVTVSSASTKGPSVFPLAPSSKSTSGGTAALGCLVKDYFPEPVTVSWNSGALTSGVHTFPAVLQSSGLYSLSSVVTVPSSSLGTQTYICNVNHKPSNTKVDKKVEPKSCDKTHTCPPCPAPELLGGPSVFLFPPKPKDTLYITREPEVTCVVVDVSHEDPEVKFNWYVDGVEVHNAKTKPREEQYNSTYRVVSVLTVLHQDWLNGKEYKCKVSNKALPAPIEKTISKAKGQPREPQVYTLPPSRDELTKNQVSLTCLVKGFYPSDIAVEWESNGQPENNYKTTPPVLDSDGSFFLYSKLTVDKSRWQQGNVFSCSVMHEALHNHYTQKSLSLSP
light: DIQMTQSPSSLSASVGDSVTITCQASTDISSHLNWYQQKPGKAPELLIYYGSHLLSGVPSRFSGSGSGTDFTFTISSLEAEDAATYYCGQGNRLPYTFGQGTKVEIERTVAAPSVFIFPPSDEQLKSGTASVVCLLNNFYPREAKVQWKVDNALQSGNSQESVTEQDSKDSTYSLSSTLTLSKADYEKHKVYACEVTHQGLSSPVTKSFNRGEC
- Kd (soluble human FcRn [5]): 210 nM

B6: GA2-IgG1 (antibody, V domains shown)
VH: QVQLVQSGAEVKKPGSSVKVSCKASGGTFSSYAISWVRQAPGQGLEWMGGIIPIFGTANYAQKFQGRVTITADESTSTAYMELSSLRSEDTAVYYCARPRWETAISSDAFDIWGQGTMVTVSS
VL: DIQMTQSPSSLSASVGDRVTITCRASQSISDDLNWYQQKPGKAPKLLIYEASNLQSGVPSRFSGSGSGTDFTLTISSLQPEDFATYYCQQHSSSPLTFGQGTKVEIKR
- Kd (human IgA [11]): 4000 nM
- Kd (human IgA [12]): 5000 nM
- Kd (human IgA [13]): 6700 nM
- Kd (human IgA [14]): 39 nM
- kon (human IgA [15]): 400000 M⁻¹ s⁻¹

B7: human IgE (recombinant; variable region derived from an anti-human glypican3 antibody) (other)
heavy: QVQLVQSGAEVKKPGASVKVSCKASGYTFTDYEMHWVRQAPGQGLEWMGALDPKTGDTAYSQKFKGRVTLTADKSTSTAYMELSSLTSEDTAVYYCTRFYSYTYWGQGTLVTVSSASTQSPSVFPLTRCCKNIPSNATSVTLGCLATGYFPEPVMVTWDTGSLNGTTMTLPATTLTLSGHYATISLLTVSGAWAKQMFTCRVAHTPSSTDWVDNKTFSVCSRDFTPPTVKILQSSCDGGGHFPPTIQLLCLVSGYTPGTINITWLEDGQVMDVDLSTASTTQEGELASTQSELTLSQKHWLSDRTYTCQVTYQGHTFEDSTKKCADSNPRGVSAYLSRPSPFDLFIRKSPTITCLVVDLAPSKGTVNLTWSRASGKPVNHSTRKEEKQRNGTLTVTSTLPVGTRDWIEGETYQCRVTHPHLPRALMRSTTKTSGPRAAPEVYAFATPEWPGSRDKRTLACLIQNFMPEDISVQWLHNEVQLPDARHSTTQPRKTKGSGFFVFSRLEVTRAEWEQKDEFICRAVHEAASPSQTVQRAVSVNPGK
light: DVVMTQSPLSLPVTPGEPASISCRSSQSLVHSNRNTYLHWYLQKPGQSPQLLIYKVSNRFSGVPDRFSGSGSGTDFTLKISRVEAEDVGVYYCSQNTHVPPTFGQGTKLEIKRTVAAPSVFIFPPSDEQLKSGTASVVCLLNNFYPREAKVQWKVDNALQSGNSQESVTEQDSKDSTYSLSSTLTLSKADYEKHKVYACEVTHQGLSSPVTKSFNRGEC
notes: Used as antigen; also called hIgE
- binding result [16]: binds

Continued, values first:

- Kd [1]: 240 nM
B1: Fv-4-F652 (antibody, human IgG1, kappa)
heavy: QVQLQESGPGLVKPSETLSLTCAVSGHSISHDHAWSWVRQPPGEGLEWIGFISYSGITNYNPSLQGRVTISRDNSKNTLYLQMNSLRAEDTAVYYCARSLARTTAMDYWGEGTLVTVSSASTKGPSVFPLAPSSKSTSGGTAALGCLVKDYFPEPVTVSWNSGALTSGVHTFPAVLQSSGLYSLSSVVTVPSSSLGTQTYICNVNHKPSNTKVDKKVEPKSCDKTHTCPPCPAPELLGGDSVFLFPPKPKDTLYISRTPEVTCVVVDVSHEDPEVKFNWYVDGVEVHNAKTKPREEQYNSTYRVVSVLTVLHQDWLNGKEYKCKVSNKALPAPIEKTISKAKGQPREPQVYTLPPSRDELTKNQVSLTCLVKGFYPSDIAVEWESNGQPENNYKTTPPVLDSDGSFFLYSKLTVDKSRWQQGNVFSCSVMHEALHYHYTQKSLSLSP
light: DIQMTQSPSSLSASVGDSVTITCQASTDISSHLNWYQQKPGKAPELLIYYGSHLLSGVPSRFSGSGSGTDFTFTISSLEAEDAATYYCGQGNRLPYTFGQGTKVEIERTVAAPSVFIFPPSDEQLKSGTASVVCLLNNFYPREAKVQWKVDNALQSGNSQESVTEQDSKDSTYSLSSTLTLSKADYEKHKVYACEVTHQGLSSPVTKSFNRGEC
notes: VH3-F652 (P238D/M252Y/N434Y) and VL3-CK

- Kd (soluble human FcRn [3]): 160 nM
- Kd (soluble human FcRn [4]): 71 nM
B3: Fv-4-LS (antibody, human IgG1, kappa)
heavy: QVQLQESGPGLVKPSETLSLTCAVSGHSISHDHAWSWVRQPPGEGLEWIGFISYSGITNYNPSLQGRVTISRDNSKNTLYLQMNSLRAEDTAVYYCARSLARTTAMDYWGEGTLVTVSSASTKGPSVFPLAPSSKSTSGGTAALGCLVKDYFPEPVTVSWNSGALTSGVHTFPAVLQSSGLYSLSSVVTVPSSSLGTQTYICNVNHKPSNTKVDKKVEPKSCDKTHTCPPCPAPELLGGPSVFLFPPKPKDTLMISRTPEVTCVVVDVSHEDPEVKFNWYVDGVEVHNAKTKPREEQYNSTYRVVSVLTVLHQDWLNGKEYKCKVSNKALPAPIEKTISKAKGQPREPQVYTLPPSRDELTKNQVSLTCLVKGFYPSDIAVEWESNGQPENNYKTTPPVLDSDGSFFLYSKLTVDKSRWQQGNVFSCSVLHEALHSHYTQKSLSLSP
light: DIQMTQSPSSLSASVGDSVTITCQASTDISSHLNWYQQKPGKAPELLIYYGSHLLSGVPSRFSGSGSGTDFTFTISSLEAEDAATYYCGQGNRLPYTFGQGTKVEIERTVAAPSVFIFPPSDEQLKSGTASVVCLLNNFYPREAKVQWKVDNALQSGNSQESVTEQDSKDSTYSLSSTLTLSKADYEKHKVYACEVTHQGLSSPVTKSFNRGEC
notes: also called F22

- Kd (human IgE [6]): 2000 nM
- koff (human IgE [6]): 0.23 s⁻¹
- kon (human IgE [6]): 120000 M⁻¹ s⁻¹
- Kd (human IgE [7]): 3900 nM
- koff (human IgE [7]): 0.24 s⁻¹
- kon (human IgE [7]): 62000 M⁻¹ s⁻¹
- KD (pH 5.8, 1.2 mM Ca)/KD (pH 7.4, 1.2 mM Ca) (human IgE [8]): 842
- KD (pH 5.8, 3 microM Ca)/KD (pH 7.4, 1.2 mM Ca) (human IgE [9]): 1640
- Kd (human IgE [10]): 2.4 nM
- koff (human IgE [10]): 0.0036 s⁻¹
- kon (human IgE [10]): 1.5e+06 M⁻¹ s⁻¹
B5: clone 278 (antibody, human IgG1, kappa, V domains shown)
VH: QSLEESGGRLVTPGTPLTLTCTASGFSLSSYHMSWVRQAPGKGLEWIGVINSAGNTYYASWAKGRFTVSKTSTTVDLNLTSLTTEDTATYFCARYVFSSGSHDIWGPGTLVTVSS
VL: AYDMTQTPASVEVAVGGTVTIKCQASQSIGSWLAWYQQKPGQPPKELIYGTSTLESGVPSRFIGSGSGTEFTLTISGVECADAATYYCQQGYSEDNIDNAFGGGTEVVVKR
notes: human IgG1 heavy chain constant region and human light chain constant region
